From patent US7045604B2, “Family of genes encoding apoptosis-related peptides, peptides encoded thereby and methods of use thereof” (Tanox, Inc., priority 1996, dated 2006)
Numbered stars: 1 amine (or outer) side, 2 acyl side, 3 side chain; on linkers, the order of the positions; unused ones are H or OH. Bridge positions count the residues as written; N and C are the ends. Square brackets hold non-standard residues; d marks the D form. Peptide text beside a SMILES is read from it. I, II: the chains in the order shown. Actinocin(9to1) = Cc1c2oc3c(C)ccc(C(=O)[*:1])c3nc-2c(C(=O)[*:2])c(N)c1=O; NMeV = CN[C@H](C(=O)O)C(C)C; Sar = CNCC(=O)O

What was measured:
msarp1 = msarp1 expression in serum deprived exponentially growing 10T1/2 cells (Northern hybridization); type: cell-based, mouse; conditions: cells grown in serum free media supplemented with TPA
Method: Isolated DNA fragments were labeled with [^32P]dCTP (3000 Ci/mmol, Amersham) in a random priming reaction according to Feinberg and Vogelstein, (1982), supra. Hybridization was carried out according to the standard protocol described in Sambrook et al. (1989), supra. The membranes were washed two times with 2×SSC at room temperature for 30 minutes. Following two additional washes at 56° C. in 0.1×SSC, 0.1% SDS, the membranes were autoradiographed onto a Kodak X-Omat® films.
Since it has previously been shown that media conditioned with exponentially growing 10T1/2 cells also prevents apoptosis, we also analyzed msarp1 expression in serum deprived exponentially growing cells. RNA was isolated at different time points after removal of serum.

C3H/10T1/2 cells = experiment: Apoptosis of exponentially proliferating or quiescent 10T1/2 cells (adherent / non-adherent cell count); type: cell-based, mouse; conditions: for apoptosis / cell death: quiescent 10T1/2 cells arrested in G0
Method: C3H/10T1/2 cells were grown in Eagle's basal medium (BME) supplemented with 10% heat-inactivated fetal bovine serum (FBS) at 37° C. in a humidified 5% CO2 atmosphere without antibiotics. Cells were plated at 2×10^3 cells/mL and fed every 3–4 days. Approximately 2 weeks after the initial seeding, the cells were completely quiescent and few if any mitotic cells were present. To analyze the effect of serum deprivation or cycloheximide treatment, the exponentially proliferating (approximately 75% confluent) or quiescent cultures were transferred to serum-free medium or medium supplemented with 10 μg/mL cycloheximide. At 24 hours, the apoptotic (i.e. non-adherent) cells and the non-apoptotic (i.e. adherent) cells were collected separately and their amounts were evaluated using a cell counter (Coulter Counter® ZM). Serum free conditioned medium was obtained after 24 hour incubation of quiescent 10T1/2 cells in BME. The RNA was isolated by the guanidine-isothiocyanate method described in Chomezinski and Sacchi (1987) Anal. Biochem., 162:156–59. 20 μg samples of total RNA were subjected to electrophoresis in a 1.2% agarose formaldehyde gel. Sambrook et al. (eds) (1989).

β-catenin = experiment: Intracellular β-catenin in MCF7 transfectants (Western immunoblot, immunohistochemistry); type: cell-based, human; conditions: for intracellular concentration of β-catenin: Western immunoblot, MCF7 transfectants vs pcDNA3 control
Method: To determine whether SARPs interfered with Wnt-frizzled protein interaction, the expression of β-catenin in MCF7-transfectants was compared. The experiment was performed as follows. Cell Cultures. MCF7 human breast adenocarcinoma cells were plated at 2×10^5 cells/ml and cultured in Modified Eagle Medium (MEM) supplemented with 10% FBS. Serum free conditioned medium was obtained after 24 hour incubation of quiescent MCF7 cells in MEM.
(§1) Transfection of MCF7. MCF7 cells were transfected with the pcDNA3 mammalian expression vector (Invitrogen), containing either no insert, msarp1, or hsarp2 cDNAs, using LipofectAMINE reagent (Gibco) according to manufacturer's protocol. Stable transfectants and two-three weeks later single cell originated clones were selected with 1 mg/ml G418 and expression of the respective genes was confirmed by Northern hybridization.
Immunohistochemistry. Paraformaldehyde-fixed transfected MCF7 cells grown on 4-well Lab-Tek® chamber slides were probed by anti-β-catenin monoclonal IgG (Transduction Laboratories). Staining was performed by avidin-biotin-peroxydase system (Vector Laboratories) using diaminobenzidine as a substrate. IgG isolated from preimmune serum was used as a negative control.
Western Immunoblot. For Western analysis the samples of conditioned media were concentrated using CENTRIPREP®-10 concentrators (AMICON). Cells were harvested in extraction buffer consisting of 20 mM tris-HCl (pH 7.8), 5 mM MgCl2, 250 mM sucrose, 1% NP40. After 1 hour incubation on ice extracts were clarified by centrifugation. Protein concentrations of the cellular extracts were determined using DC Protein Assay kit (Bio Rad). Equal amount of proteins were subjected to SDS/PAGE (Sambrook, J., et al. (1989) Molecular Cloning: A Laboratory Manual (Second ed.) (CSHL Press), transferred onto nitrocellulose membranes, and probed with the anti-GST-mSARP1 polyclonal affinity purified IgG (1 μg/mL) or anti-β-catenin monoclonal IgG (Transduction Laboratories).

[1] = tested on: MCF7 breast adenocarcinoma cell line; experiment: Sensitivity of stably transfected MCF7 cells to cytotoxic stimuli; type: cell-based, human
Description: The MCF7 breast adenocarcinoma cell line was chosen as a model to study the involvement of SARP proteins in the processes of apoptosis. The programmed cell death of these cells induced by different agents has been well characterized. Zyed et al. (1994) Cancer Res. 54:825–831. […] MCF7 cells were stably transfected with a pcDNA3 mammalian expression vector bearing full length msarp1 or hsarp2. The transfectants expressing msarp1 and hsarp2 were selected by Northern hybridization. […] Hannun and Obeid (1995) T. Biochem. Sci. 20:73–7; and Kolesnick and Fuks (1995) J. Exp. Med. 181:1949–52.
as §1

[2] = tested on: MCF7 breast carcinoma cells; experiment: Viability / apoptosis of MCF7 cells transfected with hsarp2 in pcDNA3; type: cell-based, human
Method: The NotI/XbaI fragment of hsarp2 was inserted into the NotI/XbaI sites of the mammalian expression vector pcDNA3 (Invitrogen). MCF7 breast carcinoma cells were transfected with this construct using LipofectAMINE reagent (Gibco BRL) according to manufacturer's protocol. The percentage of living cells was estimated by counting the relative amount of adherent cells using a Coulter Counter® (NZ). […] The cells were also treated with hTNF (50 ng/ml) and adriamycin (1 μg/ml). The results obtained are depicted in FIG. 6.

CCCCCCCCCCCCCC(=O)O[C@@H]1[C@@H](C)[C@@]2(O)[C@@H](C=C(CO)C[C@]3(O)C(=O)C(C)=C[C@@H]23)[C@H]2C(C)(C)[C@]12OC(C)=O [TPA]
induction of msarp1 message (msarp1): No induction of msarp1

Cc1c2oc3c(C)ccc(C(=O)N[C@@H]4C(=O)N[C@H](C(C)C)C(=O)N5CCC[C@H]5C(=O)N(C)CC(=O)N(C)[C@@H](C(C)C)C(=O)O[C@@H]4C)c3nc-2c(C(=O)N[C@@H]2C(=O)N[C@H](C(C)C)C(=O)N3CCC[C@H]3C(=O)N(C)CC(=O)N(C)[C@@H](C(C)C)C(=O)O[C@@H]2C)c(N)c1=O [actinomycin D] (I: T[dV]P[Sar][NMeV] / II: T[dV]P[Sar][NMeV]; ester I:1-I:C, II:1-II:C; linker I:N-II:N via Actinocin(9to1))
apoptosis / cell death (C3H/10T1/2 cells): Apoptosis of G0 is also induced

C[C@@H]1C[C@@H]([C@H](O)CC2CC(=O)NC(=O)C2)C(=O)[C@@H](C)C1 [cycloheximide]
apoptosis (C3H/10T1/2 cells; exponentially proliferating 10T1/2 cells, serum deprivation): apoptosis is delayed | apoptosis / cell death (C3H/10T1/2 cells): rapidly induces death

COc1ccc(C[C@H](N)C(=O)N[C@H]2[C@@H](O)[C@H](n3cnc4c(N(C)C)ncnc43)O[C@@H]2CO)cc1 [puromycin]
apoptosis / cell death (C3H/10T1/2 cells): Apoptosis of G0 is also induced

α-amanitin
apoptosis / cell death (C3H/10T1/2 cells): Apoptosis of G0 is also induced

B1: mSARP1: mouse secreted apoptosis related protein of 295 amino acids encoded by msarp1, SEQ. ID. NO: 2 (protein)
chain: MPRGPASLLLLVLASHCCLGSARGLFLFGQPDFSYKRTNCKPIPANLQLCHGIEYQNMRLPNLLGHETMKEVLEQAGAWIPLVMKQCHPDTKKFLCSLFAPVCLDDLDETIQPCHSLCVQVKDRCAPVMSAFGFPWPDMLECDRFPQDNDLCIPLASSDHLLPATEEAPKVCEACKTKNEDDNDIMETLCKNDFALKIKVKEITYINRDTKIILETKSKTIYKLNGVSERDLKKSVLWLKDSLQCTCEEMNDINAPYLVMGQKQGGELVITSVKRWQKGQREFKRISRSIRKLQC
intracellular concentration of β-catenin (β-catenin): not sensitive enough to discern a significant difference | concentration of β-catenin (β-catenin; immunohistochemistry, MCF7 transfectants): higher concentration of β-catenin | cell sensitivity to apoptosis induced by TNF [1]: higher resistance | cell sensitivity to apoptosis induced by ceramide [1]: higher resistance | growth rate and cell cycle vs parental cells [1]: not significantly different

B2: hSARP2: human secreted apoptosis related protein of 314 amino acids encoded by hsarp2 cDNA, SEQ ID NO: 18 (protein)
chain: SEYDYVSFQSDIGPYQSGRFYTKPPQCVDIPADLRLCHNVGYKKMVLPNLLEHETMAEVKQQASSWVPLLNKNCHAGTQVFLCSLFAPVCLDRPIYPCRWLCEAVRDSCEPVMQFFGFYWPEMLKCDKFPEGDVCIAMTPPNPTEASKPQGTTVCPPCDNELKSEAIIEHLCASEFALRMKIKEVKKENGDKKIVPKKKKPLKLGPIKKKDLKKLVLYLKNGADCPCHQLDNLSHHFLIMGRKVKSQYLLTAIHKWDKKNKEFKNFMKKMKNHECPTFQSVFK
intracellular concentration of β-catenin (β-catenin): decreases the intracellular concentration of β-catenin | cell sensitivity to apoptosis induced by TNF [1]: sensitized the cells to apoptosis | cell sensitivity to apoptosis induced by ceramide [1]: sensitized the cells to apoptosis | growth rate and cell cycle vs parental cells [1]: not significantly different | percentage of viable cells ([2]; MCF7 transfected with pcDNA3-hsarp2, adherent cells counted): decrease in the percentage of viable cells | programmed cell death ([2]; breast carcinoma cell line, increased expression of hsarp2, dose dependent): increase programmed cell death | percentage of cells undergoing apoptosis in culture ([2]; hsarp2 in expression vector transfected into human cell lines): increases
